From the supplement of paper PMC7877785
± gives the uncertainty stated by the source.

Experiment: self-splicing fitness, log relative to wild type (ln ratio); higher = more splicing; Tetrahymena group I intron in knt gene, E. coli kanamycin selection, DiMSum; sequences stand for … in CUCUCU…GGAGGGAAAAGUUAUCAGGCAUGCACCUGGUAGCUAGUCUUUAAACCAAUAGAUUGCAUCGGUUUAAAAGGCAAGACCGUCAAAUUGCGGGAAAGGGGUCAACAGCCGUUCAGUACCAAGUCUCAGGGGAAACUUUGAGAUGGCCUUGCAAAGGGUAUGGUAAUAAGCUGACGGACAUGGUCCUAACCACGCAGCCAAGUCCUAAGUCAACAGAUCUUCUGUUGAUAUGGAUGCAGUUCACAGACUAAAUGUCGGUCGGGGAAGAUGUAUUCUUCUCAUAAGAUAUAGUCGGACCUCUCCUUAAUGGGAGCUAGCGGAUGAAGUGAUGCAACACUGGAGCCGCUGGGAACUAAUUUGUAUGCGAAAGUAUAUUGAUUAGUUUUGGAGUACUCGUGGUCG
Outline: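 DiMSum derived fitness as the error-weighted combination of fold changes across replicates, kanamycin versus no kanamycin, normalised to wild type. E. coli BL21(DE3) held the library, which randomised all eight P1ex-region intron nucleotides within the knt kanamycin-resistance gene on pET-22b(+). Six replicate transformations grew overnight at 37°C or 30°C on LB agar with or without 25 μg/mL kanamycin, also containing 100 μg/mL carbenicillin, 50 μM IPTG and 0.2% rhamnose, and pooled colonies were amplicon-sequenced on an Illumina HiSeq 2500.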

Row | Sequence | self-splicing fitness (ln) (30 °C) | self-splicing fitness (ln) (37 °C)
1 | CAAUAGCAAUAUUACGGUGC | -3.75 ± 0.23 | -3.67 ± 0.29
2 | GCACAGCAAUAUUACGUAGU | -0.976 ± 0.057 | -0.516 ± 0.072
3 | ACGAAGCAAUAUUACGUCGU | -3.41 ± 0.29 | -3.5 ± 0.42
4 | CAAUAGCAAUAUUACGAGUC | -4.09 ± 0.34 | -2.75 ± 0.28
5 | AUUUAGCAAUAUUACGCGCC | -0.641 ± 0.26 | -0.828 ± 0.34
6 | UGGCAGCAAUAUUACGGUGA | -0.428 ± 0.097 | 0.214 ± 0.12
7 | UUCUAGCAAUAUUACGAUGG | -2.49 ± 0.19 | -1.02 ± 0.34
8 | CCUGAGCAAUAUUACGCGUA | -3.77 ± 0.34 | -2.33 ± 0.23
9 | UAACAGCAAUAUUACGGCGU | -1.79 ± 0.11 | -1.01 ± 0.1
10 | UUCCAGCAAUAUUACGGCGA | -0.331 ± 0.076 | -0.0354 ± 0.097
11 | GCCGAGCAAUAUUACGGACU | -1.86 ± 0.2 | -0.863 ± 0.15
12 | CAGUAGCAAUAUUACGGGGA | -3.9 ± 0.4 | -2.23 ± 0.21
13 | GCCGAGCAAUAUUACGUCUC | -2.92 ± 0.22 | -1.44 ± 0.21
14 | ACCAAGCAAUAUUACGAGGA | -3.15 ± 0.19 | -2.7 ± 0.16
15 | GACCAGCAAUAUUACGACUG | -2.86 ± 0.15 | -2.12 ± 0.17
16 | AAUAAGCAAUAUUACGAGCU | -0.949 ± 0.1 | -0.237 ± 0.1
17 | GGCUAGCAAUAUUACGUUGC | -1.94 ± 0.17 | -1.38 ± 0.2
18 | UUGUAGCAAUAUUACGAAAA | -1.86 ± 0.17 | -0.986 ± 0.19
19 | GAGGAGCAAUAUUACGGCUA | -1.75 ± 0.12 | -1.37 ± 0.11
20 | UUCCAGCAAUAUUACGCCCG | -1.33 ± 0.15 | -1.23 ± 0.17
21 | UACCAGCAAUAUUACGUAUU | -2.16 ± 0.1 | -2.6 ± 0.18
22 | UGGAAGCAAUAUUACGUGCG | -0.442 ± 0.054 | 0.0701 ± 0.075
23 | UAUGAGCAAUAUUACGAUUU | -3.29 ± 0.26 | -1.76 ± 0.22
24 | UCAAAGCAAUAUUACGAUUU | -3.58 ± 0.24 | -2.3 ± 0.22
25 | UUAGAGCAAUAUUACGCAUG | -1.12 ± 0.11 | -0.298 ± 0.12

Row | Sequence | self-splicing fitness (ln) (30 °C) | self-splicing fitness (ln) (37 °C)
26 | UGCAAGCAAUAUUACGGGCA | -1.4 ± 0.11 | -0.815 ± 0.096
27 | CCCCAGCAAUAUUACGCCAG | -3.57 ± 0.2 | -2.44 ± 0.22
28 | CCAAAGCAAUAUUACGUCUU | -4.12 ± 0.21 | -2.43 ± 0.14
29 | GACAAGCAAUAUUACGAUCU | -0.884 ± 0.079 | -0.309 ± 0.097
30 | CCUGAGCAAUAUUACGCCGU | -3.18 ± 0.45 | -1.61 ± 0.39
31 | UUCCAGCAAUAUUACGCGGC | -3.73 ± 0.47 | -1.38 ± 0.4
32 | UGAAAGCAAUAUUACGAUAG | -1.07 ± 0.098 | -0.612 ± 0.098
33 | GAUUAGCAAUAUUACGACGU | -0.442 ± 0.063 | 0.93 ± 0.089
34 | AUUGAGCAAUAUUACGAAAA | -2.45 ± 0.41 | 
35 | UUGAAGCAAUAUUACGUUAC |  | -2.51 ± 0.23
36 | GAAAAGCAAUAUUACGUAGG | -3.87 ± 0.14 | -1.96 ± 0.11
37 | UUGAAGCAAUAUUACGUGGG | -2.69 ± 0.099 | -1.35 ± 0.1
38 | ACACAGCAAUAUUACGUUCG | -0.803 ± 0.05 | -1.13 ± 0.064
39 | GACUAGCAAUAUUACGAGUC |  | -2.36 ± 0.39
40 | GCACAGCAAUAUUACGUAUG | -2.21 ± 0.073 | -1.52 ± 0.079
41 | CACCAGCAAUAUUACGACGU | -2.58 ± 0.096 | -1.11 ± 0.099
42 | GUCCAGCAAUAUUACGACAG | -3.57 ± 0.36 | -1.93 ± 0.41
43 | UAGGAGCAAUAUUACGAUCA | -1.02 ± 0.2 | -0.542 ± 0.28
44 | GUCGAGCAAUAUUACGCUAA |  | -1.5 ± 0.2
45 | AGCGAGCAAUAUUACGAAGG | -4.58 ± 0.26 | -2.09 ± 0.15
46 | GUUCAGCAAUAUUACGGCCC | -0.59 ± 0.19 | 0.24 ± 0.24
47 | UUUUAGCAAUAUUACGGCUG | -0.732 ± 0.48 | -0.495 ± 0.38
48 | GACAAGCAAUAUUACGGCAU | -0.363 ± 0.067 | 0.227 ± 0.088
49 | GUACAGCAAUAUUACGUUGG | -3.39 ± 0.21 | -2.16 ± 0.15
